Ends that are not written are not given here.
What was measured:
[1] = target: T1, TPR1 domain of the Hop protein (Homo sapiens, UniProt P31948); experiment: Isothermal titration calorimetry, binding to TPR1 domain of Hop; conditions: ITC at 25° C.
T1 construct: Codons 1-118 (TPR1) and 223-352 (TPR2A) of human Hop protein were cloned; hexahistidine (TEV-cleavable) (N, cleaved yes); made in house; host or cells: E. coli BL21 (DE3)
Protocol: (§1) FIG. 6 is a plotting of the thermo-dynamic analysis of the interaction of TPR1 and TPR2A with the C-terminal sequences of Hsp70 and Hsp90. […] The sequence […] corresponds with the 12 C-terminal amino acid residues of Hsc70. […] corresponds with the 12 C-terminal amino acid residues of Hsp90.
(§2) 40-50 aliquots of 5•μl peptide solution (7.5 mM-15 mM) were titrated at 25° C. by injection into a 1.36 ml TPR1 (TPR2A) solution (450•M-950•M) into the chamber. Alternatively, a solution of 3 mM TPR1 (TPR2A) in 180•M C70 (C90) solution was titrated in the chamber. […] Typically, the injections were continued past the saturation limits in order to be able to determine the heat of the ligand solution. After subtracting the solution heat, the calorimetric data was analysed, where an assessment software was used, which is provided by the manufacturer (version 2.9; MicroCal Software, Inc.).

[2] = target: T2, TPR2A domain of the Hop protein (Homo sapiens, UniProt P31948); experiment: Isothermal titration calorimetry, binding to TPR2A domain of Hop; conditions: ITC at 25° C.
T2 construct: Codons 1-118 (TPR1) and 223-352 (TPR2A) of human Hop protein were cloned; hexahistidine (TEV-cleavable) (N, cleaved yes); made in house; host or cells: E. coli BL21 (DE3)
Protocol: as §1, §2

[3] = target: T3, TPR1 domain of human Hop protein (codons 1-118) (human, UniProt P31948 4-118); experiment: ITC, 25 °C
T3 construct: Expressed in E. coli with a removable N-terminal His6 tag, which was cleaved with TEV; It could not be checked that the entry is exactly residues 1-118; also called N-terminal TPR domain of Hop
Protocol: as §1
(§3) 40-50 aliquots of 5•μl peptide solution (7.5 mM-15 mM) were titrated at 25° C. by injection into a 1.36 ml TPR1 (TPR2A) solution (450•M-950•M) into the chamber. Alternatively, a solution of 3 mM TPR1 (TPR2A) in 180•M C70 (C90) solution was titrated in the chamber. The peptides were dissolved in and the proteins were dialysed against the buffer G (25 mM, pH 7.5, 100 mM Kac, 5 mM MgAc₂). Typically, the injections were continued past the saturation limits in order to be able to determine the heat of the ligand solution. After subtracting the solution heat, the calorimetric data was analysed, where an assessment software was used, which is provided by the manufacturer (version 2.9; MicroCal Software, Inc.).

[4] = target: T4, TPR2A domain of human Hop protein (codons 223-352) (human, UniProt P31948 225-352); experiment: ITC, 25 °C
T4 construct: Expressed in E. coli, His6 tag cleaved with TEV; A selenomethionine-labelled form was made for MAD phasing; also called TRP2A
Protocol: as §1, §3

T3 sequence (P31948 other isoform, or with tags, fused parts or gaps limits assumed): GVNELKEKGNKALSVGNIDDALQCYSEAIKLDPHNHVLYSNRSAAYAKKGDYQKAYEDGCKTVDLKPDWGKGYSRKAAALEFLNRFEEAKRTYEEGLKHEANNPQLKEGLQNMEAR
T1 sequence (P31948 1-118): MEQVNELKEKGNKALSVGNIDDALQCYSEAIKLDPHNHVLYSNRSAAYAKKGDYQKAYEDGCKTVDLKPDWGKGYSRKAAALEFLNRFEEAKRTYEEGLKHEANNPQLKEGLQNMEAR
T4 sequence (P31948 other isoform, or with tags, fused parts or gaps limits assumed): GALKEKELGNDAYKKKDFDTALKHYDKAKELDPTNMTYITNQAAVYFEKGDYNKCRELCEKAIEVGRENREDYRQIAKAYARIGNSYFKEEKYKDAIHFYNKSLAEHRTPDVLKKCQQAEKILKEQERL
T2 sequence (P31948 223-352): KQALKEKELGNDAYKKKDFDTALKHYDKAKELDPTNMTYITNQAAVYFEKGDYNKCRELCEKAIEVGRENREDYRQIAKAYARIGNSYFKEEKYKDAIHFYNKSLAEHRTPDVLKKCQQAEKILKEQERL

Question: How did the “binding to TPR1, result in words” value [1] turn out when “GASSGPTIEEVD [Hsp70 Dodekamer, C-terminal dodecamer of Hsp70]” was run?
Answer: Its value is “same affinities”.

Question: “GSGGPTIEEVD [Hsc70 Dodekamer, peptide of the 12 C-terminal amino acid residues of Hsc70]” was tested. Which “binding to TPR1, result in words” value [1] did it give?
Answer: The value was “same affinities”.

Question: With “C90: C-terminal domain of human Hsp90 (codons 625-732), 12 kDa fragment including dimerisation domain and authentic C-terminal” as the molecule, how does the stoichiometry factor [2] read?
Answer: Its stoichiometry factor is ~1.

Question: What about the “binding to TPR1, result in words” value [1] of the same molecule?
Answer: The value was “weak, non-specific binding”.

Question: Which “stoichiometry N” value ([1]; binding to TPR1, listed as 25 kDa fragment of human Hsp70) does the source give for “C70: C-terminal fragment of human Hsp70 (codons 382-641), 25 kDa domain” here?
Answer: Its value is ~1.

Question: For Ac-PTIEEVD [C-terminal heptamer peptide of Hsc70], which Kd [3] is on record?
Answer: Its Kd is 15 to 20 µM.

Question: How did the Kd [4] turn out when Ac-EEVD (also called EEVD peptide; EEVD motif) [tetrapeptide EEVD] was run?
Answer: Its Kd is 90 µM.

Question: And the Kd [3]?
Answer: Its Kd is ~300 µM.

Question: Which “fold increase in affinity (against the EEVD motif alone)” value [3] does the source give for Ac-GPTIEEVD (also called structured octamer peptide) [Hsp70 peptide GPTIEEVD] here?
Answer: The value was 20 fold.

Source: patent publication US20030138848A1, “3D structure of polypeptides containing a TPR-structure motif with chaperone-binding function, crystals thereof and compounds for inhibition of said polypeptides” (priority 2000, published 2003)
